According to paper PMC11252911 (Proceedings of the National Academy of Sciences of the …, 2024):

Assays:
Assay in all cases: ITC
[1] = molecular target: Pwl4 (Magnaporthe oryzae)
[2] = molecular target: Pwl2 without the signal peptide (residues 22 to 145) (Magnaporthe oryzae)
[3] = molecular target: T1, HMA domain of OsHIPP43 (residues 26 to 101) (rice, UniProt Q8LJL3 26-101); details: both partners purified
T1 construct: also called Os01g0507700
T1 sequence (looked up): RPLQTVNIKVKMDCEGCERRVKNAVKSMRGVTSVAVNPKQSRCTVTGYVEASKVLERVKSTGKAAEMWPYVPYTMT

With “HMA domain of OsHIPP43 (residues 26 to 101) (from UniProt Q8LJL3 26-101) (domain or fragment)” as the molecule, how does the Kd [1] read?
Its Kd is 124 nM.

What about the Kd [2] of the same molecule?
The Kd was 191 nM.

And the dH [2]?
The dH was -67.6 kcal/mol.

B1: Pwl1 (natural protein)
chain: RKWTNKVIYNDKGEREGSISIRKGAEGDFNCGPGYPGGPDRMVRVHEDNGNIRGMPPGYRLGPDDKEDKRDNQYYSRNGYHVGDGPAEYQNHGGGQWGDGYYGPPGEITNQHGKRQGDQGCHIM
B1 was tested. Which Kd [3] did it give?
Its Kd is 147 nM.
